Reference: paper PMC8386010, “Nanobody-armed T cells endow CAR-T cells with cytotoxicity against lymphoma cells” (Cancer Cell International, 2021)
No end group written: not given here.

B1: human CD20 antigen (natural protein)
chain: KISHFLKMESLNFIRAHTPYINIYNCEPANPSEKNSPSTQYCYSIQS
modifications: cysteine pairing not given here; also: biotinylated for panning, position not given here
B2: Anti-CD19 Nb2 (VHH)
VHH: QVQLQESGGGSVQTGGSLRLSCAASGFSYTGHHMGWFRQVAAQEREWVGSIYTDPGTTFYADSVKGRFTISQDVAKKMVYLQMNNLKPTDTGIYFCAAEPVADGPPLMSRDRCFGSWGQGTQVTVSS
B3: anti-CD19 Nb1 (VHH)
VHH: QVQLQESGGGSVQAGGSLRLSCAVRRPTDSRNCMAWFRQAPGEQREAVAGIDIYRTTGYAESVKGRFTISQDNAKNTLFLQMNSLKPEDSGTYYCAAARPCKYGSEWRRSASDFLYWGQGTQVTVSS
notes: nanobody selected from a Bactrian camel naive phage display library; In SPR it was captured by an anti-human IgG (Fc) antibody; also called anti-CD19 nanobody; source: cloned into the pCZN1 vector, expressed and purified
B4: Anti-CD19 Nb3 (VHH)
VHH: QVQLQESGGGSVQGGGSLRLSCAVSGATYMIQYMGWFRQAPGKEREGVAVIHSDDRTTYADSVKGRFTISQDNANHTLYLQMNSLKPEDTGMYVCASSLSKGGYYRGDLVPGQFTYWGRGTQVTVSS

Columns and labels:
anti-CD20 Nb1 = molecular target: T1, anti-CD20 Nb1 (Bactrian camel); test: SPR; Biacore T200; nanobody captured by immobilised mouse anti-human IgG (Fc) antibody; human CD19/CD20 antigen injected in 7 serial twofold dilutions from 10 µg/ml, 30 µl/min, association 120 s, dissociation 300 s; conditions: both partners purified
T1 construct: nanobody selected from a Bactrian camel naive phage display library; In SPR it was captured by an anti-human IgG (Fc) antibody; also called anti-CD20 nanobody; source: cloned into the pCZN1 vector, expressed and purified

human CD19 antigen [1] = molecular target: T2, human CD19 antigen (Homo sapiens, UniProt P15391)
human CD19 antigen [2] = molecular target: T2, human CD19 antigen; test: SPR; Biacore T200; nanobody captured by immobilised mouse anti-human IgG (Fc) antibody; human CD19/CD20 antigen injected in 7 serial twofold dilutions from 10 µg/ml, 30 µl/min, association 120 s, dissociation 300 s; conditions: both partners purified

T2 sequence (P15391 20-291): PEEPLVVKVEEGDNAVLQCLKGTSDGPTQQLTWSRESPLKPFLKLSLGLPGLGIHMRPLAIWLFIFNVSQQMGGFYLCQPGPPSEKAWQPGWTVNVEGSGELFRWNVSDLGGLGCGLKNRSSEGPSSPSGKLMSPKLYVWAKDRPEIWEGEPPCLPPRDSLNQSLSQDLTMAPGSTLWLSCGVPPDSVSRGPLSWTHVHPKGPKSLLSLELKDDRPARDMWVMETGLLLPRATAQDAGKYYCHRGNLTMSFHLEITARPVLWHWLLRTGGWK

Binder	binding result (human CD19 antigen [1])	other results
B1		Kd (anti-CD20 Nb1): 147 nM
B2	binds	
B3		Kd (human CD19 antigen [2]): 290 nM
B4	binds	
